Measurements as given in the supplement of paper PMC7125110.
± gives the standard error. Variants at the floor of the assay were thinned out.

B1: glmS ribozyme (parent)
chain: AUAAAAGCGCCAGAACUACAGAAAUGUAGUUGACGAGGAGGAGGUUUAUCGAAUUUUCGGCGGAUGCCUCCAAA

Key:
Settings in all cases: with glucosamine-6-phosphate
glucosamine-6-phosphate [1] = variants of: B1; assay: self-cleavage kobs at 40 uM GlcN6P; higher = faster cleavage; RNA array
Procedure, shortened: (§1)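 E. coli RNA polymerase transcribed barcoded ribozyme variants in situ on sequenced MiSeq chips, which were tracked via a hybridised Cy3 probe at 37 °C. Tiles were imaged over ~14 h after glucosamine-6-phosphate (40 μM to 10 mM) in HEPES/KCl/Mg(OAc)2 buffer was flowed in. Normalised per-tile medians were fit to one- or two-exponential decays for kobs, and kcat and KM came from weighted Michaelis–Menten fits.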

glucosamine-6-phosphate [2] = variants of: B1; assay: self-cleavage kobs at 160 uM GlcN6P; higher = faster cleavage; RNA array
Procedure, shortened: as §1

glucosamine-6-phosphate [3] = variants of: B1; assay: self-cleavage kobs at 2500 uM GlcN6P; higher = faster cleavage; RNA array
Procedure, shortened: as §1

glucosamine-6-phosphate [4] = variants of: B1; assay: self-cleavage kobs at 10000 uM GlcN6P; higher = faster cleavage; RNA array
Procedure, shortened: as §1

glucosamine-6-phosphate [5] = variants of: B1; assay: self-cleavage kobs at 640 uM GlcN6P; higher = faster cleavage; RNA array
Procedure, shortened: as §1

Variant | self-cleavage kobs at 40 uM GlcN6P (glucosamine-6-phosphate [1]) [s⁻¹] | self-cleavage kobs at 160 uM GlcN6P (glucosamine-6-phosphate [2]) [s⁻¹] | self-cleavage kobs at 2500 uM GlcN6P (glucosamine-6-phosphate [3]) [s⁻¹] | self-cleavage kobs at 10000 uM GlcN6P (glucosamine-6-phosphate [4]) [s⁻¹] | self-cleavage kobs at 640 uM GlcN6P (glucosamine-6-phosphate [5]) [s⁻¹]
A48U U49C | < 1e-05 | < 1e-05 | < 1e-05 | < 1e-05 | 
A52C G60U U69C | < 1e-05 |  |  |  | 
C50G A53C C67G | 7.76e-05 ± 2.5e-05 | 0.000121 ± 2.6e-05 | 0.000336 ± 0.00012 | 5.98e-05 ± 1.9e-05 | 0.000198 ± 6.2e-05
C50A G59C | < 1e-05 |  | < 1e-05 | < 1e-05 | < 1e-05
A52G G63C | < 1e-05 |  |  |  | 
A53U U56C | 5.21e-05 ± 8e-06 | 0.000101 ± 1.5e-05 | 0.00118 ± 0.00021 | 0.0038 ± 0.00042 | 0.000782 ± 9.1e-05
A53U U56G | 0.000405 ± 6.8e-05 | 0.000558 ± 0.00015 | 0.00421 ± 0.0011 | 0.0151 ± 0.004 | 0.00241 ± 0.00042
C61A G66C | < 1e-05 |  | < 1e-05 | < 1e-05 | 
U54G C70U | 0.00112 ± 0.00013 | 0.000836 ± 0.00011 |  |  | 0.00544 ± 0.001
A52U C61A | < 1e-05 |  |  | < 1e-05 | 
A48U G63C | < 1e-05 | < 1e-05 | < 1e-05 | < 1e-05 | < 1e-05
U49G G66C | < 1e-05 |  | < 1e-05 |  | 
A52G G60A U65G C71U | < 1e-05 |  |  |  | 
U55C G60U C68U | < 1e-05 |  | < 1e-05 |  | 
G60C C61A | < 1e-05 | < 1e-05 |  | < 1e-05 | < 1e-05
G63U G66U | < 1e-05 |  | < 1e-05 | < 1e-05 | < 1e-05
G63U G66C | < 1e-05 | < 1e-05 | < 1e-05 | < 1e-05 | 
U54C U65A | 6.51e-05 ± 8.4e-06 |  |  | 0.00332 ± 0.00031 | 0.00147 ± 0.00042
G62C U65C | < 1e-05 | < 1e-05 | < 1e-05 |  | < 1e-05
C58U U65A | < 1e-05 | < 1e-05 |  |  | 
G60C C67G | < 1e-05 | < 1e-05 |  | < 1e-05 | < 1e-05
G60C C67A | < 1e-05 |  | < 1e-05 |  | 

Variant | self-cleavage kobs at 40 uM GlcN6P (glucosamine-6-phosphate [1]) [s⁻¹] | self-cleavage kobs at 160 uM GlcN6P (glucosamine-6-phosphate [2]) [s⁻¹] | self-cleavage kobs at 2500 uM GlcN6P (glucosamine-6-phosphate [3]) [s⁻¹] | self-cleavage kobs at 10000 uM GlcN6P (glucosamine-6-phosphate [4]) [s⁻¹] | self-cleavage kobs at 640 uM GlcN6P (glucosamine-6-phosphate [5]) [s⁻¹]
C50G G59C C67G | 0.00018 ± 5.4e-05 |  |  | 0.000119 ± 2.8e-05 | 
A52G A53C | < 1e-05 |  |  |  | 
A52U A53G C61U | < 1e-05 |  |  |  | 
U55C G62A | < 1e-05 | < 1e-05 | < 1e-05 | < 1e-05 | < 1e-05
U49A C58A | < 1e-05 | < 1e-05 |  |  | < 1e-05
C50A U57G C68U | < 1e-05 |  |  | < 1e-05 | 
A64G U65A C68G | < 1e-05 |  |  |  | 
C50G C70A | 8.32e-05 ± 1.7e-05 | 0.000173 ± 5.4e-05 | 0.000238 ± 5.8e-05 | 7.91e-05 ± 1.3e-05 | 0.000163 ± 4.1e-05
G51A C58G | < 1e-05 |  |  | < 1e-05 | 
A52U G60A | < 1e-05 | < 1e-05 |  | < 1e-05 | < 1e-05
G51A A64C | < 1e-05 | < 1e-05 | < 1e-05 | < 1e-05 | 
A53C U56C | < 1e-05 |  | 0.000121 ± 2e-05 |  | 
C58U G60U | < 1e-05 |  | < 1e-05 | < 1e-05 | < 1e-05
C61G G63A | < 1e-05 | < 1e-05 |  | < 1e-05 | 
C58A G60A | < 1e-05 | < 1e-05 |  | < 1e-05 | 
G60C A64U | < 1e-05 | < 1e-05 | < 1e-05 | < 1e-05 | < 1e-05
G60C A64G | < 1e-05 | < 1e-05 | < 1e-05 | < 1e-05 | < 1e-05
C58G A64G C68A | 4.76e-05 ± 1.8e-05 |  | 5.81e-05 ± 2.1e-05 |  | 0.00061 ± 0.00029
A53U C70U | 0.000741 ± 6.7e-05 | 0.00102 ± 0.00023 | 0.00471 ± 0.0013 | 0.0335 ± 0.0084 | 0.00682 ± 0.0013
G51C C61U G62C | < 1e-05 |  |  | < 1e-05 | 
G60A C71U | < 1e-05 |  |  |  | < 1e-05
A52U A64G U69A | < 1e-05 |  |  |  | 

Variant | self-cleavage kobs at 40 uM GlcN6P (glucosamine-6-phosphate [1]) [s⁻¹] | self-cleavage kobs at 160 uM GlcN6P (glucosamine-6-phosphate [2]) [s⁻¹] | self-cleavage kobs at 2500 uM GlcN6P (glucosamine-6-phosphate [3]) [s⁻¹] | self-cleavage kobs at 10000 uM GlcN6P (glucosamine-6-phosphate [4]) [s⁻¹] | self-cleavage kobs at 640 uM GlcN6P (glucosamine-6-phosphate [5]) [s⁻¹]
U55C C61U C68U | < 1e-05 |  |  | < 1e-05 | 
G62A C67A | < 1e-05 |  |  | < 1e-05 | 
U56C G59C C68G | < 1e-05 |  |  | < 1e-05 | 
A53C C68A | < 1e-05 | < 1e-05 |  |  | < 1e-05
G60U C70A | < 1e-05 | < 1e-05 |  | < 1e-05 | < 1e-05
C50G G66U | 0.000495 ± 0.00015 |  | 0.000123 ± 5.1e-05 |  | 
A53U U55C | 0.000338 ± 7.3e-05 | 0.00118 ± 0.0004 | 0.00602 ± 0.0019 | 0.0266 ± 0.0065 | 0.00434 ± 0.00089
G60U C68G | < 1e-05 | < 1e-05 | < 1e-05 | < 1e-05 | < 1e-05
A53G C71G | 0.000153 ± 2e-05 |  | 0.00062 ± 0.00013 |  | 0.000377 ± 5.8e-05
A48U C58U | < 1e-05 | < 1e-05 | < 1e-05 | < 1e-05 | < 1e-05
U54G A64C C67A C70U | 0.000151 ± 5.2e-05 | 0.000348 ± 0.00013 | 0.000241 ± 0.0001 | 4.58e-05 ± 1.8e-05 | 0.000556 ± 0.00017
U56A G62U | < 1e-05 |  |  |  | < 1e-05
U49G C50A | < 1e-05 | < 1e-05 |  |  | 
A53U G62C | < 1e-05 |  | < 1e-05 | < 1e-05 | < 1e-05
G60C C67A C71U | < 1e-05 |  |  |  | 
C58G A64C | < 1e-05 | < 1e-05 |  |  | 
C58G A64U | < 1e-05 |  | < 1e-05 | < 1e-05 | < 1e-05
C50A A53C | < 1e-05 |  |  |  | 
A48U G59A | < 1e-05 | < 1e-05 | < 1e-05 | < 1e-05 | < 1e-05
C67G C70G | < 1e-05 |  |  | < 1e-05 | 
A64U C68A | < 1e-05 |  |  | < 1e-05 | < 1e-05
A64G U65G C71A | 5.45e-05 ± 2.2e-05 |  |  | 0.00131 ± 0.00024 | 

Variant | self-cleavage kobs at 40 uM GlcN6P (glucosamine-6-phosphate [1]) [s⁻¹] | self-cleavage kobs at 160 uM GlcN6P (glucosamine-6-phosphate [2]) [s⁻¹] | self-cleavage kobs at 2500 uM GlcN6P (glucosamine-6-phosphate [3]) [s⁻¹] | self-cleavage kobs at 10000 uM GlcN6P (glucosamine-6-phosphate [4]) [s⁻¹] | self-cleavage kobs at 640 uM GlcN6P (glucosamine-6-phosphate [5]) [s⁻¹]
A53G C61G | < 1e-05 |  |  |  | 
U55G U56G G62C | < 1e-05 |  |  | < 1e-05 | 
U56G G63U | < 1e-05 | < 1e-05 |  | < 1e-05 | < 1e-05
U54A C61U C71G | < 1e-05 |  |  |  | 
U49C U65C | < 1e-05 |  |  | < 1e-05 | < 1e-05
G51A U69C | < 1e-05 |  |  | < 1e-05 | 
C61G C70U | < 1e-05 |  |  | < 1e-05 | 
G63U A64C C67G C70U | < 1e-05 |  |  | < 1e-05 | < 1e-05
C50G G66A C70A | 7.79e-05 ± 2.3e-05 |  |  |  | 
A53G U69A | 0.000147 ± 4e-05 |  | 0.000305 ± 8.4e-05 | 8.92e-05 ± 2.1e-05 | 0.000407 ± 0.0001
C61G A64G | < 1e-05 |  | < 1e-05 | < 1e-05 | < 1e-05
A53G U54C | 0.000508 ± 7.8e-05 | 0.000991 ± 0.00024 |  | 0.0169 ± 0.0033 | 
U49A G60C | < 1e-05 |  | < 1e-05 | < 1e-05 | < 1e-05
G66A C71A | 0.000146 ± 2.1e-05 | 0.00048 ± 9.5e-05 |  | 0.00424 ± 0.00059 | 0.0014 ± 0.00036
U56C G60U | < 1e-05 | < 1e-05 | < 1e-05 | < 1e-05 | < 1e-05
C50U A64C C67A | < 1e-05 |  | < 1e-05 |  | < 1e-05
G60A G62U | < 1e-05 | < 1e-05 | < 1e-05 |  | < 1e-05
A48G A64G | < 1e-05 |  | 7.81e-05 ± 2.4e-05 | 9.59e-05 ± 2.5e-05 | 
A53G C68U | 0.000296 ± 4.8e-05 | 0.00034 ± 7.7e-05 | 0.00239 ± 0.00052 | 0.00554 ± 0.0012 | 0.00399 ± 0.00064
G51C U55G | < 1e-05 | < 1e-05 | < 1e-05 | < 1e-05 | < 1e-05
